From patent US20110028695A1 (published 2011)

Tests used:
HER2 on SKBR3 cells [1] = molecular target: T1, HER2 on SKBR3 cells (human, UniProt P04626 23-1255); experiment: FMAT on SKBR3 cells; competitor labeled Herceptin
T1 construct: whole, on cells; also called ErbB2; HER2 p185 tyrosine kinase

[2] = molecular target: T2, recombinant human ErbB2/Fc chimera (human, UniProt P04626 23-652); experiment: SPR Biacore 3000, periplasmic extract over immobilised rhErbB2-Fc
T2 construct: bought from R&D Systems; also called rhErbB2-Fc; rhErb2-Fc; Fc part of the bought chimera not given

HER2 on SKBR3 cells [3] = molecular target: T1, HER2 on SKBR3 cells; experiment: FMAT on SKBR3 cells, periplasmic extract; competitor biotinylated OT-Fab
HER2 on SKBR3 cells [4] = molecular target: T1, HER2 on SKBR3 cells; experiment: cell-based or functional assay
HER2 on SKBR3 cells [5] = molecular target: T1, HER2 on SKBR3 cells; experiment: FMAT on SKBR3 cells, periplasmic extract; competitor Alexa647-Herceptin

| binding result (HER2 on SKBR3 cells [1]) | Binder | further results |
| --- | --- | --- |
| binds | 30D10-35GS-2D3 (bispecific antibody, biparatopic Nanobody, 35GS linker; c-myc, His6-tagged) EVQLVESGGGLVQAGGSLTLSCTASETTVRIRTMAWYRQPPGNQREWVATIGSNGFATYPDSVKGRFTISRDNAKNTVYLQMNSLKPEDTAVYYCRDINRDIWGQGSQVTVSSGGGGSGGGGSGGGGSGGGGSGGGGSGGGGSGGGGSEVQLVESGGSLVQPGGSLRLSCAASGFTFDDYAMSWVRQVPGKGLEWVSSINWSGTHTDYADSVKGRFTISRNNANNTLYLQMNSLKSEDTAVYYCAKNWRDAGTTWFEKSGSAGQGTQVTVSS | – |
| binds | 2A5-9GS-2A5 (VHH, bivalent Nanobody, two VHH joined by a 9GS linker) EVQLVESGGGLVQPGGSLRLSCATSGFTFDDYAMTWVRQAPGKGLEWVSSINWSGTHTDYTDSVKGRFTISRNNANNTLYLQMNSLKSEDTAVYYCAKNWGDAGTTWFEKSGSAGQGTQVTVSSGGGGSGGGSEVQLVESGGGLVQPGGSLRLSCATSGFTFDDYAMTWVRQAPGKGLEWVSSINWSGTHTDYTDSVKGRFTISRNNANNTLYLQMNSLKSEDTAVYYCAKNWGDAGTTWFEKSGSAGQGTQVTVSS | – |
| binds | 2D3-9GS-2D3 (VHH, bivalent Nanobody, two VHH joined by a 9GS linker) EVQLVESGGSLVQPGGSLRLSCAASGFTFDDYAMSWVRQVPGKGLEWVSSINWSGTHTDYADSVKGRFTISRNNANNTLYLQMNSLKSEDTAVYYCAKNWRDAGTTWFEKSGSAGQGTQVTVSSGGGGSGGGSEVQLVESGGSLVQPGGSLRLSCAASGFTFDDYAMSWVRQVPGKGLEWVSSINWSGTHTDYADSVKGRFTISRNNANNTLYLQMNSLKSEDTAVYYCAKNWRDAGTTWFEKSGSAGQGTQVTVSS | – |
| – | 2H3 (VHH, c-myc/His6-tagged) VHH: EVQLVESGGGLVQPGGSLRLSCVASGFSLDDYGMTWVRQAPGKGLEWVSSINWSGTHTDYADSVKGRFTISRDNAKNTLFLQMNSLTPEDTAVYYCNQGWKIIPTDRRGHGTQVTVSS | koff [2]: 0.00109 s⁻¹ |
| – | 47D5 (VHH, c-myc/His6-tagged; also called 47A8) VHH: KVQLVESGGGLVQPGGSLRLSCAASGSIFGFNDMAWYRQAPGKQRELVALISRVGVTSSADSVKGRFTISRVNAKDTVYLQMNSLKPEDTAVYYCYMDQRLDGSTLAYWGQGTQVTVSS | % blocking of OT-Fab binding (HER2 on SKBR3 cells [3]): > 85% |
| binds | 2A4-9GS-2A4 (VHH, bivalent Nanobody, two VHH joined by a 9GS linker) EVQLVESGGGLVQPGGSLRLSCAASGFIFDDYAMSWVRQAPGKGLEWVSAINWSGSHRNYADSVKGRFTISRDNAKKTVYLQMNSLQSEDTAVYYCGTGWQSTTKNQGYWGQGTQVTVSSGGGGSGGGSEVQLVESGGGLVQPGGSLRLSCAASGFIFDDYAMSWVRQAPGKGLEWVSAINWSGSHRNYADSVKGRFTISRDNAKKTVYLQMNSLQSEDTAVYYCGTGWQSTTKNQGYWGQGTQVTVSS | – |
| binds | 27A5-35GS-2D3 (bispecific antibody, biparatopic Nanobody, 35GS linker; c-myc, His6-tagged) EVQLVESGGGLVQAGGSLNLSCVASGIPFSTRTMAWYRQPPGNERDWVATIRSGAPVYADSVKGRFTVSRDNAKNTLYLQMNSLEPEDTATYYCWDVNGDIWGQGTPVTVSSGGGGSGGGGSGGGGSGGGGSGGGGSGGGGSGGGGSEVQLVESGGSLVQPGGSLRLSCAASGFTFDDYAMSWVRQVPGKGLEWVSSINWSGTHTDYADSVKGRFTISRNNANNTLYLQMNSLKSEDTAVYYCAKNWRDAGTTWFEKSGSAGQGTQVTVSS | – |
| – | 2D3 (VHH) VHH: EVQLVESGGSLVQPGGSLRLSCAASGFTFDDYAMSWVRQVPGKGLEWVSSINWSGTHTDYADSVKGRFTISRNNANNTLYLQMNSLKSEDTAVYYCAKNWRDAGTTWFEKSGSAGQGTQVTVSS | inhibition of SKBR3 proliferation ([3H]-thymidine), 50 nM Nanobody (HER2 on SKBR3 cells [4]): ~30% |
| – | 13C12 (VHH, c-myc/His6-tagged) VHH: EVQLVESGGSLVQPGGSLRLSCATSGFTFDDYAMTWVRQAPGKGLEWVSSINWSGTHTDYTDSVKGRFTISRNNANNTLYLQMNSLKSEDTAVYYCAKNWGDAGTTWFEKSGSAGQGTQVTVSS | % blocking of Herceptin binding (HER2 on SKBR3 cells [5]): > 90% |
| binds | 2C3-9GS-2C3 (VHH, bivalent Nanobody, two VHH joined by a 9GS linker) EVQLVESGGGLVQPGGSLRLSCVASGFSLDDYGMTWVRQAPGKGLEWVSSINWSGTHTDYADSVKGRFTISRDNAKNTLFLQMNSLRSEDTAVYYCNQGWKIVPTDRTGHGTQVTVSSGGGGSGGGSEVQLVESGGGLVQPGGSLRLSCVASGFSLDDYGMTWVRQAPGKGLEWVSSINWSGTHTDYADSVKGRFTISRDNAKNTLFLQMNSLRSEDTAVYYCNQGWKIVPTDRTGHGTQVTVSS | – |
| binds | 27H3-35GS-2D3 (other, biparatopic Nanobody, 35GS linker; c-myc, His6-tagged) EVQLVESGGSLVQPGGSLRLSCAASGFTFDDYAMTWVRQASGKGLEWVSSINWSGTHTDYTDSVKGRFTISRNNANNTLYLQMNSLKSEDTAVYYCAKNWGDAGTTWFEKSGSAGQGTQVTVSSGGGGSGGGGSGGGGSGGGGSGGGGSGGGGSGGGGSEVQLVESGGSLVQPGGSLRLSCAASGFTFDDYAMSWVRQVPGKGLEWVSSINWSGTHTDYADSVKGRFTISRNNANNTLYLQMNSLKSEDTAVYYCAKNWRDAGTTWFEKSGSAGQGTQVTVSS | – |
